Literature values in article PMC8405992.
Where two headings read alike, the source gives them in different places. Each block holds one substance with its values, some of them ahead of it.

How the values were obtained:
[1] = biological target: Ubp6 UBL (Saccharomyces cerevisiae) (UniProt P43593)
[2] = biological target: Dsk2 UBL (Saccharomyces cerevisiae) (UniProt P48510)
[3] = biological target: Dsk2 UBL (Saccharomyces cerevisiae) (UniProt P48510); remark: listed apart in the source
[4] = biological target: Ubp6 UBL (Saccharomyces cerevisiae) (UniProt P43593); remark: listed apart in the source
[5] = biological target: Rad23-UBL UBL (Saccharomyces cerevisiae) (UniProt P32628)
Rad23-UBL UBL (Saccharomyces cerevisiae), sequence (P32628 1-77): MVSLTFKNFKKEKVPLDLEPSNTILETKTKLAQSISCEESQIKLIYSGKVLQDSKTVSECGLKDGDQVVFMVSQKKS

[6] = biological target: Rad23 UBL (Saccharomyces cerevisiae) (UniProt P32628)
Rad23 UBL (Saccharomyces cerevisiae), sequence (P32628 1-77): as above

Dsk2 UBL (Saccharomyces cerevisiae), sequence (P48510 1-76): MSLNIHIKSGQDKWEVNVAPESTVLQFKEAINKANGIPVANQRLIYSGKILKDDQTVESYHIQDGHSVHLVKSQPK
Ubp6 UBL (Saccharomyces cerevisiae), sequence (P43593 6-80): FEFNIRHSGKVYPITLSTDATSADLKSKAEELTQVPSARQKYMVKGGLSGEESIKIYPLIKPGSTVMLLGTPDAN
Rpn1 391-642, sequence (P38764 391-642): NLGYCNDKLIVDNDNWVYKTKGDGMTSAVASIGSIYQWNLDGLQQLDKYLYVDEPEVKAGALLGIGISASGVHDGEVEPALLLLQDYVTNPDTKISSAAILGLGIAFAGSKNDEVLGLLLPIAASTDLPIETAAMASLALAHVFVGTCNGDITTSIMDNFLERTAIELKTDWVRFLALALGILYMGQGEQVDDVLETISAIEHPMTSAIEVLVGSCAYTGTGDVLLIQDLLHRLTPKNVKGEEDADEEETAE
Rpn1, sequence (P38764 2-993): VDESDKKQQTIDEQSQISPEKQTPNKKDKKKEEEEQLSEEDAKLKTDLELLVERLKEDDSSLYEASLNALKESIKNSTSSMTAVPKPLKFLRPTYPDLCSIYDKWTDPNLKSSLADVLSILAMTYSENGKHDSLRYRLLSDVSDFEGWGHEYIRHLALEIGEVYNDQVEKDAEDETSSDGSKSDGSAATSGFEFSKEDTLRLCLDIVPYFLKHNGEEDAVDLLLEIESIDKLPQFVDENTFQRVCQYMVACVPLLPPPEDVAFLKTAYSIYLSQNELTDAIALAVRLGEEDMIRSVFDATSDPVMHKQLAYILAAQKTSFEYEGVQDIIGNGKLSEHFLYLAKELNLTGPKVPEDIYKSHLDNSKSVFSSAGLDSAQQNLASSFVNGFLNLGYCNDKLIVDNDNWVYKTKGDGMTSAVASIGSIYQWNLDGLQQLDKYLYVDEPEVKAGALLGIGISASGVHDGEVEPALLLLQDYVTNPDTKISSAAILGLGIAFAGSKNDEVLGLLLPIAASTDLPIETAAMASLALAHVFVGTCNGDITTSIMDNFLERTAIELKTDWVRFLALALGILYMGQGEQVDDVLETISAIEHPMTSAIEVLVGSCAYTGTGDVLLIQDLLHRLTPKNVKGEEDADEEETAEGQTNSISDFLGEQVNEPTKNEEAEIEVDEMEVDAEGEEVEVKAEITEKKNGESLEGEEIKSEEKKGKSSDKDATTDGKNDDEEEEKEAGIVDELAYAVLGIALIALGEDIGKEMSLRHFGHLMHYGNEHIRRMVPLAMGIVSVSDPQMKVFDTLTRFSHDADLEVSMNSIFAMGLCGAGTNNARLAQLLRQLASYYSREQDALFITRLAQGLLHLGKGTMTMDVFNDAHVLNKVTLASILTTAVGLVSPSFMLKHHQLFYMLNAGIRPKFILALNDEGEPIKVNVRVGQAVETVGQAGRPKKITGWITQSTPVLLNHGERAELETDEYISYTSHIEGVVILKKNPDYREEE

Substance: Rpn1 391-642 (from UniProt P38764)
Kd [1]: 40 µM
Kd [2]: 22 µM

Kd [3]: 12 µM
Kd [4]: 2 µM
Substance: Rpn1 (from UniProt P38764)

Kd [5]: 0.064 µM
Kd [6]: 0.064 µM
Substance: Rpn1 T1 site (from UniProt P38764)
